Test results: the supplement of paper PMC9732359
± gives the uncertainty stated by the source.

Test: protein stability index of a GFP-peptide fusion (yeast GPS) (PSI 1-4); higher = more stable; sorted into four equal gates, so the index is relative within each strain
Summary of the method: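 Yeast carrying a pooled library were grown to mid-log phase in leucine-free medium. Each library plasmid expresses Cherry and has a tiled 17-residue yeast protein peptide fused downstream of GFP. Cells were sorted into four equal gates by GFP/Cherry ratio, and plasmids from each gate were PCR-amplified, Illumina-sequenced and assigned to strains by barcode. Summing, across gates, the read frequency times the gate number gave each peptide's protein stability index.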

Sequence | protein stability index (doa10∆) | protein stability index (pdr5∆) | protein stability index (san1∆) | protein stability index (ubr1∆)
WRKSDRELTKNILWRIA [SIR4] | 2.91 ± 0.12 | 1.82 ± 0.088 | 2.09 ± 0.25 | 2.54 ± 0.089
FDQAGKKVSRRNARAAR [RPL13B] | 3.08 ± 0.091 | 3.01 ± 0.14 | 2.67 ± 0.28 | 3.29 ± 0.094
MSTDVAAAQAQSKIDLT [SEM1] | 2.91 ± 0.079 | 2.82 ± 0.095 | 2.98 ± 0.079 | 2.88 ± 0.083
RGTLTKNLKHIDVTFTK [RPL9A] | 3.32 ± 0.06 | 3.25 ± 0.067 | 3 ± 0.077 | 2.72 ± 0.065
KIQFILEQMELSILKGD [RPN5] |  | 2.57 ± 0.23 | 2.35 ± 0.29 | 2.65 ± 0.19
AEKLGSKKAEKTGTKPA [RPL4A] | 3.14 ± 0.067 | 3.08 ± 0.07 | 3.13 ± 0.05 | 3.06 ± 0.072
MSSNTSSVMSSPRVEKR [YOR098C/NUP1] | 3.18 ± 0.084 | 3.18 ± 0.093 | 3.15 ± 0.078 | 3.01 ± 0.088
ESTAGSASTSATGISGS [ECM29] | 3.31 ± 0.046 | 3.35 ± 0.053 | 3.12 ± 0.035 | 3.277 ± 0.032
QTMQLIKNVQDLLILTR [SRB6] | 1.51 ± 0.087 | 1.8 ± 0.091 |  | 2.09 ± 0.086
SLPHFPKNSKTPQSKGF [RPO31] | 2.94 ± 0.23 | 3.08 ± 0.22 | 2.67 ± 0.18 | 2.98 ± 0.21
NDLIVNYEDLATTQAAS [BRN1] | 2.98 ± 0.07 | 3.09 ± 0.087 | 3.34 ± 0.046 | 3.25 ± 0.061
LPTDGGLTSRLQRQQRK [POP4] | 2.95 ± 0.16 | 3.3 ± 0.17 | 3.13 ± 0.12 | 3.38 ± 0.12
INGWKFESLPLKSAENS [SWP82] | 2.92 ± 0.067 | 3.25 ± 0.053 | 2.9 ± 0.055 | 3.03 ± 0.058
RRSKMNPLWNAIIVAGV [PRE4] | 2.87 ± 0.097 | 3.25 ± 0.12 | 2.86 ± 0.097 | 2.93 ± 0.074
EFTLFMDIAERIAVLHQ [YGL172W/NUP49] | 2.77 ± 0.075 | 2.54 ± 0.056 | 2.24 ± 0.068 | 2.9 ± 0.048
HDVGELFWKVKEEEGSF [PRE2] | 2.71 ± 0.081 | 2.97 ± 0.08 | 2.92 ± 0.064 | 2.86 ± 0.07
YSSVAGTVSRVNRLLSV [RRP4] | 1.74 ± 0.036 | 1.77 ± 0.038 | 1.82 ± 0.053 | 1.8 ± 0.03
IAPPVAPHDSEATLLTN [SNF5] | 2.99 ± 0.066 | 2.82 ± 0.068 | 2.93 ± 0.043 | 2.83 ± 0.049
KQGRIKNATEELLRLAN [CSN12] | 3.15 ± 0.17 | 3 ± 0.13 | 2.6 ± 0.14 | 3.36 ± 0.22
PTVSLTINLDRFMKGRR [RPC82] | 2.38 ± 0.083 | 2.48 ± 0.06 | 2.62 ± 0.062 | 2.63 ± 0.081
NSIDVPIRINSTEEIEY [YMR129W/POM152] | 1.76 ± 0.055 | 2.27 ± 0.058 | 2.01 ± 0.071 | 2.6 ± 0.034
LLPNSKNVENTKNLSIL [DSN1] | 2.59 ± 0.1 | 2.5 ± 0.11 | 2.43 ± 0.12 | 2.83 ± 0.054
GQMAPIGTGAFDVMIDE [RPO21] | 2.29 ± 0.12 | 2.3 ± 0.13 | 2.37 ± 0.12 | 2.54 ± 0.057
LTWLSSFSVCKIRCFRY [IRR1] | 2.07 ± 0.053 | 1.59 ± 0.054 | 1.58 ± 0.087 | 1.61 ± 0.04
YSWLLFEASCMEGQKLD [YJR042W/NUP85] | 1.09 ± 0.094 | 1.36 ± 0.09 | 1.39 ± 0.2 | 1.17 ± 0.064
VSVEGVNVEKFNVEYFA [RPL6A] | 2.91 ± 0.069 | 3.21 ± 0.067 | 3.14 ± 0.042 | 3.16 ± 0.054
HITSVPISAVLRGCKFL [GRR1] | 1.77 ± 0.044 | 1.66 ± 0.048 | 1.86 ± 0.064 | 2.05 ± 0.037

Sequence | protein stability index (doa10∆) | protein stability index (pdr5∆) | protein stability index (san1∆) | protein stability index (ubr1∆)
IDKITDGLGNVVDFTSL [YMR129W/POM152] | 3.41 ± 0.11 | 3.53 ± 0.13 | 3.37 ± 0.061 | 3.45 ± 0.1
QFEVSDDEKNDKQARKQ [SNF2] | 3.38 ± 0.083 | 3.4 ± 0.12 | 3.06 ± 0.069 | 3.29 ± 0.077
STQELQTRAKLLDNEIR [RPT5] | 3.2 ± 0.15 | 3.05 ± 0.085 | 3.03 ± 0.083 | 2.98 ± 0.044
KPGSIDAISQVINIAKA [FAS1] | 2.14 ± 0.052 | 2.87 ± 0.061 | 2.61 ± 0.069 | 2.95 ± 0.033
TILYLNVFHGLCAGANN [IRR1] | 1.3 ± 0.071 | 1.64 ± 0.083 | 1.39 ± 0.087 | 1.34 ± 0.076
LNGREVKAILMQRHVKV [RPS4A] | 1.23 ± 0.081 | 1.25 ± 0.063 | 1.39 ± 0.21 | 1.24 ± 0.051
SNNQVIKMQRQFSQLND [MED6] | 3.01 ± 0.073 | 3.04 ± 0.059 | 3.03 ± 0.064 | 3.18 ± 0.06
RRGTALGIKKEKRIQYA [RPB2] | 1.95 ± 0.08 | 1.44 ± 0.14 | 2.33 ± 0.15 | 2.89 ± 0.072
HWLQLAKGVYRPNGRKD [POP1] | 2.68 ± 0.06 | 3.12 ± 0.049 | 3.2 ± 0.034 | 3.15 ± 0.049
QNDELKFQGVLESEAQK [RPC34] | 3.41 ± 0.11 | 3.21 ± 0.11 | 3.23 ± 0.061 | 2.93 ± 0.075
VNECIAQSHQRFNAKVS [CDC53] | 2.15 ± 0.039 | 2.6 ± 0.043 | 2.64 ± 0.054 | 2.3 ± 0.027
FLDSVHKQGSSYVAVLG [POP7] | 2.6 ± 0.045 | 2.17 ± 0.037 | 2.38 ± 0.057 | 2.51 ± 0.033
LIASHYGVSFFTIQSFV [BRR2] | 1.92 ± 0.043 | 1.89 ± 0.039 | 1.48 ± 0.063 | 1.81 ± 0.051
MPYTINELLEMVGLASG [BRR2] | 2.56 ± 0.049 | 2.31 ± 0.057 | 2.58 ± 0.052 | 2.52 ± 0.031
ELADLPKLKRIGLVKCT [GRR1] | 2.82 ± 0.085 | 2.71 ± 0.051 | 2.28 ± 0.088 | 2.88 ± 0.087
LNLKFKEKWPSLELQSF [YML103C/NUP188] | 2.72 ± 0.097 | 2.54 ± 0.14 | 1.92 ± 0.11 | 2.05 ± 0.19
KKTVAGGAYTVSTAAAA [RPL43A] | 2.43 ± 0.068 | 2.46 ± 0.065 | 2.15 ± 0.074 | 2.15 ± 0.05
LNEEAVIFLSSLLTLVG [YJL039C/NUP192] | 2.52 ± 0.076 | 2.72 ± 0.086 | 2.3 ± 0.11 | 2.9 ± 0.088
EYQVIGRRLPTESVPEP [RPL20A] | 3.08 ± 0.11 | 3.21 ± 0.1 | 3.1 ± 0.13 | 3.15 ± 0.06
LVPTASFFIASQLQEQF [FAS1] | 1.35 ± 0.047 | 1.88 ± 0.053 | 1.53 ± 0.086 | 1.86 ± 0.04
PTITLDDVYRPAAESKI [SNF5] | 3.13 ± 0.068 | 3.11 ± 0.071 | 3.02 ± 0.09 | 2.98 ± 0.068
KLDSKKILPTDIQLKNL [SRP68] | 2.74 ± 0.1 | 2.78 ± 0.078 | 2.79 ± 0.061 | 2.69 ± 0.059
DFDGDEMNLHVPQTEEA [RPO31] | 3.03 ± 0.071 | 3.31 ± 0.068 | 2.99 ± 0.063 | 3.18 ± 0.051
VSIDIEEPQLDLLDDVL [MTW1] | 2.62 ± 0.094 | 3.09 ± 0.067 | 3.24 ± 0.045 | 3.19 ± 0.048
EPPLSYEQHIENIEPLD [PRP8] | 2.44 ± 0.087 | 2.97 ± 0.097 | 2.32 ± 0.12 | 3.03 ± 0.27
KLLKSLLLNYLELIGVL [MED7] | 1.86 ± 0.052 | 1.56 ± 0.052 | 1.14 ± 0.098 | 1.33 ± 0.058
